Non-standard residues stand in square brackets, D forms with d. No end group written: not given here. *: point of attachment. Biotin = O=C1N[C@H]2[C@H](CS[C@H]2CCCCC(=O)*)N1

Assay [1] deals with high affinity formyl methionine receptor (fMLF receptor) on differentiated HL-60 cells (human) (UniProt P21462). The assay is described as follows: cell-based or functional assay.
For assay [2] the target is unchanged. Kind of assay: radioligand binding to DMSO-differentiated HL-60 cells.
The target of assay [3] is T1, human sodium dependent multivitamin transporter, hSMVT (human, UniProt Q9Y289 1-635).
T1 sequence (looked up): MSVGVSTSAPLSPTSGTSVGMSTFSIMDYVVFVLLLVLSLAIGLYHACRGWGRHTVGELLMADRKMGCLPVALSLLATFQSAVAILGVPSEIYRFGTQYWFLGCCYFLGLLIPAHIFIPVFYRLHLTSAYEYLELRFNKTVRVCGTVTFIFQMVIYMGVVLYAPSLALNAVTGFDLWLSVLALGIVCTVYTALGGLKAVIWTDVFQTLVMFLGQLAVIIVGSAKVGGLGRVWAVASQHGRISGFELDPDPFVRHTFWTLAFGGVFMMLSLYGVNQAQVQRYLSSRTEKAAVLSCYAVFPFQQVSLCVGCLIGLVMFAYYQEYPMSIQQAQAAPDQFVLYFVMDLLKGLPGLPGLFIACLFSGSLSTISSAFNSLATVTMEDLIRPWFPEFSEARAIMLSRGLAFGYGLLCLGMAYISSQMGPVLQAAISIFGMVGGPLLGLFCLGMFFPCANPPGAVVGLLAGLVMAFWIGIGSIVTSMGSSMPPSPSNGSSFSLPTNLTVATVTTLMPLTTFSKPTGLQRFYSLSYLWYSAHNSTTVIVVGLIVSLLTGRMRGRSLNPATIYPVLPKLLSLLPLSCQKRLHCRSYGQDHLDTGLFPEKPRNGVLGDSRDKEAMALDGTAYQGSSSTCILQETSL
The assay is described as follows: cell-based or functional assay.

Sequence of high affinity formyl methionine receptor (fMLF receptor) on differentiated HL-60 cells (human) (P21462 whole entry): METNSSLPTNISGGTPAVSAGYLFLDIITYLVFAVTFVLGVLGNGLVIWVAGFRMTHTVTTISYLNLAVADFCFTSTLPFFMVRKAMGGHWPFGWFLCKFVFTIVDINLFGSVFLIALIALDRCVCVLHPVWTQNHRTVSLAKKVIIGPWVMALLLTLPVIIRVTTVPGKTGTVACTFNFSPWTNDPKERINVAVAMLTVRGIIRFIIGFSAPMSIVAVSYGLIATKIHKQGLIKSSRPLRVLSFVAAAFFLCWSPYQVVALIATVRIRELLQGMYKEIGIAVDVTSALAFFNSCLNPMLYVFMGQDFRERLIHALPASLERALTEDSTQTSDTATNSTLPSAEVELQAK

“N-formyl-methionine-leucine-phenylalanine (fMLF) peptide”: in assay [1], the Cell Activation EC50 (calcium release from intracellular stores, differentiated HL-60 cells) is 4.7 nM.
In turn, fML[3H]F (peptide) had a specific binding as percent of total binding in assay [2] of 75%.

B1: RI-K(biotin)-Tat9 (peptide)
peptide: [dK](Biotin)[dR][dR][dR][dQ][dR][dR][dK][dK][dR]-NH2
modifications: not fully specified (N-terminus)
Turning to B1, the “uptake in CHO/hSMVT cells relative to RI-K-Tat9 (at 10 µM)” value in assay [3] was ~500 fold.

For the origin of these results see US20060029667A1 (RUTGERS THE STATE UNIVERSITY OF NEW JERSEY, published 2006).
